The text below walks through data of US20140193400A1 (ESBATECH AN ALCON BIOMEDICAL RESEARCH UNIT, published 2014).

To fix the notation:
B1: EP43_maxDHP (scFv)
scFv: EIVMTQSPSTLSASVGDRVIIKCQASQSISDWLAWYQQKPGKAPKLLIYGASRLASGFPSRFSGSGSGAEFTLTISGLEPADFATYYCQQGWSDSYVDNLFGQGTKLTVLGGGGGSGGGGSGGGGSGGGGSEVQLVESGGGSVQPGGSLRLSCTVSGFSLSSGAMSWVRQAPGKGLEWVGVIISSGATYYASWAKGRFTISKDTSKNTVYLQMNSLRAEDTATYYCARGGPDDSNSMGTFDPWGQGTSVTVSS
B2: EP43_minmax (scFv)
scFv: B1 scFv with K22T, F58V, G77S, E79Q, A81D, S142L, T223V, S248L
notes: Min graft VL with max graft VH; also called 958
B3: EP43_maxmin (scFv)
scFv: B1 scFv with S142L, T154A, V155A, G180S, K202R, T204N, V209L, T223V, R228K, S248L
notes: also called 959
B4: ESBA105 (scFv)
chain: MADIVMTQSPSSLSASVGDRVTLTCTASQSVSNDVVWYQQRPGKAPKLLIYSAFNRYTGVPSRFSGRGYGTDFTLTISSLQPEDVAVYYCQQDYNSPRTFGQGTKLEVKRGGGGSGGGGSGGGGSSGGGSQVQLVQSGAEVKKPGASVKVSCTASGYTFTHYGMNWVRQAPGKGLEWMGWINTYTGEPTYADKFKDRFTFSLETSASTVYMELTSLTSDDTAVYYCARERGDAMDYWGQGTLVTVSS
B5: EP34_max (scFv)
scFv: EIVMTQSPSTLSASLGDRVIITCQSSQSVYGNIWMAWYQQKSGKAPKLLIYQASKLASGVPSRFSGSGSGAEFSLTISSLQPDDFATYYCQGNFNTGDRYAFGQGTKLTVLGGGGGSGGGGSGGGGSGGGGSEVQLVESGGGLVQPGGSLRLSCTASGFTISRSYWICWVRQAPGKGLEWVACIYGDNDITPLYANWAKGRFPVSTDTSKNTVYLQMNSLRAEDTAVYYCARLGYADYAYDLWGQGTLVTVSS
notes: scFv NH2-VL-(GGGGS)4-VH-COOH; also called Epi34max; 791
B6: EP35_max (scFv)
scFv: EIVMTQSPSTLSASVGDRVIITCQASQSISNLLAWYQQKPGKAPKLLIVAASKLASGVPSRFSGSGSGTEFTLTISSLQPDDFATYYCQQGWSHTNVDNTFGQGTKLTVLGGGGGSGGGGSGGGGSGGGGSEVQLVESGGGSVQPGGSLRLSCTASGFSFSVGYWICWVRQAPGKGLEWVACIDAGTSGGTYYATWAKGRFTISKDTSKNTVYLQMNSLRAEDTATYYCARGVSSNGYYFKLWGQGTTVTVSS
notes: scFv NH2-VL-(GGGGS)4-VH-COOH; also called 1089
B7: EP6_max (scFv)
scFv: EIVMTQSPSTLSASVGDRVIITCQASESIYSGLAWYQQKPGKAPKLLIYQASTLASGVPSRFSGSGSGTDFTLAISSLQPDDFATYYCQQGFGTSNVENPFGQGTKLTVLGGGGGSGGGGSGGGGSGGGGSEVQLVESGGGLVQPGGSLRLSCTVSGFSLSRYGVSWVRQAPGKGLEWVGTIGEAGRAYYANWARSRSTISRDTSKNTVYLQMNSLRAEDTAVYYCARGEVFNNGWGAFNIWGQGTLVTVSS
notes: scFv NH2-VL-(GGGGS)4-VH-COOH; also called 674
B8: EP15_max (scFv)
scFv: EIVMTQSPSTLSASVGDRVIITCQASENIYTSLAWYQQKPGKAPKLLIYSASTLASGVPSRFSGSGSGTEFTLTISSLQPDDFATYYCQQGFATSNVENPFGQGTKLTVLGGGGGSGGGGSGGGGSGGGGSEVQLVESGGGSVQPGGSLRLSCTVSGFSLSRYGVSWVRQAPGKGLEWVGAIGETGRAYYANWAKSRSTISRDTSKNTVYLQMNSLRAEDTATYYCARGEEFNNGWGAFNIWGQGTTVTVSS
notes: scFv NH2-VL-(GGGGS)4-VH-COOH; also called 1074
B9: EP19_max (scFv)
scFv: EIVMTQSPSTLSASVGDRVIITCQASDNIYRGLAWYQQKPGKAPKLLIYDASTLQSGVPSRFSGSGSGTQFTLTISSLQPDDFATYYCLGVYGYSSDDGAAFGQGTKLTVLGGGGGSGGGGSGGGGSGGGGSEVQLVESGGGLVQPGGSLRLSCTVSGFSLNSNEISWVRQAPGKGLEWVGYIGNGGMTHYASWAKGRFTISRDTSKNTVYLQMNSLRAEDTAVYYCASSVEYTDLYYLNIWGQGTLVTVSS
notes: also called 1007; EP19maxmod
B10: EP43_min (scFv)
scFv: EIVMTQSPSTLSASVGDRVIITCQASQSISDWLAWYQQKPGKAPKLLIYGASRLASGVPSRFSGSGSGAEFTLTISSLQPDDFATYYCQQGWSDSYVDNLFGQGTKLTVLGGGGGSGGGGSGGGGSGGGGSEVQLVESGGGLVQPGGSLRLSCAASGFSLSSGAMSWVRQAPGKGLEWVSVIISSGATYYASWAKGRFTISRDNSKNTLYLQMNSLRAEDTAVYYCAKGGPDDSNSMGTFDPWGQGTLVTVSS
notes: scFv NH2-VL-(GGGGS)4-VH-COOH; also called 705
B11: EP42_min (scFv)
scFv: EIVMTQSPSTLSASVGDRVIITCQSTESVYKNNYLAWYQQKPGKAPKLLIYDASTLASGVPSRFSGSGSGAEFTLTISSLQPDDFATYYCAGYYRSGFGTANGSFGQGTKLTVLGGGGGSGGGGSGGGGSGGGGSEVQLVESGGGLVQPGGSLRLSCAASGFTFRNDAISWVRQAPGKGLEWVSYISDWGIKYYASWVKGRFTISRDNSKNTLYLQMNSLRAEDTAVYYCAKGAPGAGDNGIWGQGTLVTVSS
notes: scFv NH2-VL-(GGGGS)4-VH-COOH; also called 1076
B12: EP6_min (scFv)
scFv: B7 scFv with T69A, D70E, A74T, T154A, V155A, G180S, S198F, T204N, V209L, R228K
notes: scFv NH2-VL-(GGGGS)4-VH-COOH; also called 673
B13: EP15_min (scFv)
scFv: EIVMTQSPSTLSASVGDRVIITCQASENIYTSLAWYQQKPGKAPKLLIYSASTLASGVPSRFSGSGSGAEFTLTISSLQPDDFATYYCQQGFATSNVENPFGQGTKLTVLGGGGGSGGGGSGGGGSGGGGSEVQLVESGGGLVQPGGSLRLSCAASGFTFSRYGVSWVRQAPGKGLEWVSAIGETGRAYYANWAKSRFTISRDNSKNTLYLQMNSLRAEDTAVYYCAKGEEFNNGWGAFNIWGQGTLVTVSS
notes: scFv NH2-VL-(GGGGS)4-VH-COOH; also called 1073
B14: EP1_max (scFv)
scFv: EIVMTQSPSTLSASVGDRVIITCQSTESVYKNNYLAWYQQKPGKAPKLLIYDASTLASGVPSRFSGSGSGTEFTLTISSLQPDDFATYYCAGYYRSGSGTANGSFGQGTKLTVLGGGGGSGGGGSGGGGSGGGGSEVQLVESGGGSVQPGGSLRLSCTVSGIDLSNDAISWVRQAPGKGLEWVAYISDWSIRYYANWAQGRFTISKDTSKNTVYLQMNSLRAEDTATYYCARGAPGAGDNGIWGQGTTVTVSS
notes: scFv NH2-VL-(GGGGS)4-VH-COOH; also called 1072
B15: EP42_max (scFv)
scFv: B14 scFv with S98F, S165R, A184S, S190G, R192K, N196S, A198V, Q199K
notes: scFv NH2-VL-(GGGGS)4-VH-COOH; also called 1077

Changes are numbered by the printed parent chain. Where “and” joins values, the source holds several entries; their conditions need not be identical. Equal values may be shown once.

In one experiment the target is T1, recombinant human TNFalpha (human, UniProt P01375 77-233). In words: cell-based or functional assay.
T1 sequence (P01375 77-233 limits assumed): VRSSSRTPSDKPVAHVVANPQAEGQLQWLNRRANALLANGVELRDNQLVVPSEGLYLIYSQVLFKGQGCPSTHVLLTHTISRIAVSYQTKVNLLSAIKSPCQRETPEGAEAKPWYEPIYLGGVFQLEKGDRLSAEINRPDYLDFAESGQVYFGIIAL
On to B1, for which the “L929* [EC50-E105/EC50-X], potency relative to ESBA105” value was 6.7 ratio EC50 ESBA105/EC50 X (mass units, ng/ml).

Turning to B2, the “L929* [EC50-E105/EC50-X], potency relative to ESBA105” value is 1.6 ratio EC50 ESBA105/EC50 X (mass units, ng/ml).

The target of a further experiment is T2, Human TNFa N-his trimers (His-tagged TNF, produced at ESBATech) (human, UniProt P01375 77-233).
T2 construct: Captured as trimers on a Ni-NTA sensor chip by the N-terminal His tags in the Biacore assay of the general methods; also called human TNFα; human TNF alpha; not shown: N-terminal His tag
T2 sequence (P01375 77-233 limits assumed): as above
In words: SPR (BIAcore), His-tagged human TNF captured on NTA chip, scFv as analyte; units taken from paragraph 184. As to the method:
(§1) For binding affinity measurements at pH5 and pH 7.4 (data not shown), surface Plasmon resonance measurements with BIAcore™-T 100 were employed using a NTA sensor chip and His-tagged TNF (produced at ESBATech). The surface of the NTA sensor chip consists of a carboxymethylated dextran matrix pre-immobilized with nitrilotriacetic acid (NTA) for capture of histidine tagged molecules via Ni2+NTA chelation. Human TNFa N-his trimers (5 nM) are captured by the nickel via their N-terminal his-tags and ESBA105 (analyte) is injected at several concentrations ranging from 30 nM to 0.014 nM in 3 fold serial dilution steps. At the regeneration step, the complex formed by nickel, ligand and analyte is washed away. This allows the use of the same regeneration conditions for different samples. The response signal is generated by surface Plasmon resonance (SPR) technology and measured in resonance units (RU). All the measurements are performed at 25° C. Sensorgrams were generated for each anti-TNF scFv sample after in-line reference cell correction followed by buffer sample subtraction. The apparent dissociation rate constant (kd), the apparent association rate constant (kₐ) and the apparent dissociation equilibrium constant (KD) were calculated using one-to-one Langmuir binding model with BIAcore T100 evaluation Software version 1.1.
On the technique in general: In SPR one partner is held on a chip, and binding of the other changes the refractive index at the surface.
For orientation: Kd means the concentration at which binding is half-saturated. The koff is the first-order rate constant of dissociation. Low values mean slow dissociation, high ones fast dissociation. A word on the kon: it is the second-order rate constant of association. B1 came in with a Kd of 0.116 nM, a koff of 2.73e-05 s⁻¹ and a kon of 235000 M⁻¹ s⁻¹.

Molecule B3 displayed a Kd of 36.6 nM, a koff of 0.00533 s⁻¹ and a kon of 146000 M⁻¹ s⁻¹.

In turn, B2 came in with a Kd of 0.868 nM, a koff of 0.000198 s⁻¹ and a kon of 228000 M⁻¹ s⁻¹.

The target in another experiment is T1, recombinant human TNFalpha. As to the kind of experiment: cell-based or functional assay. This is another data set of the same source.
B4: the “EC50, L929 potency assay” value was found to be 6.5 ng/mL.

In the case of B5, the “IC50, block of cytotoxic activity (human Kym-1 cells, 10 pg/ml TNF)” value is 0.69 ng/mL and 0.63 ng/mL; the “IC50, block of cytotoxic activity (murine L929 cells, 1000 pg/ml TNF)” value was 1.03 ng/mL and 1.04 ng/mL.

In a further experiment the target is T1, recombinant human TNFalpha. As to the kind of experiment: cell-based or functional assay. The source holds these as a separate data set.
Take B6: the “L929* [EC50-E105/EC50-X], potency relative to ESBA105” value was 5.2 ratio EC50 ESBA105/EC50 X (mass units, ng/ml).

With B7, the “L929* [EC50-E105/EC50-X], potency relative to ESBA105” value is 1.1 ratio EC50 ESBA105/EC50 X (mass units, ng/ml).

Take B5: the “L929* [EC50-E105/EC50-X], potency relative to ESBA105” value was 10.5 ratio EC50 ESBA105/EC50 X (mass units, ng/ml).

B8: the “L929* [EC50-E105/EC50-X], potency relative to ESBA105” value is 0.39 ratio EC50 ESBA105/EC50 X (mass units, ng/ml).

For the molecule B9, the “L929* [EC50-E105/EC50-X], potency relative to ESBA105” value is 0.6 ratio EC50 ESBA105/EC50 X (mass units, ng/ml).

A further experiment has as its target T2, Human TNFa N-his trimers (His-tagged …). As to the kind of experiment: SPR (BIAcore T100), His-tagged human TNF captured on NTA chip, scFv as analyte. As to the method:
as §1
Regarding B10, the Kd stood at 5540 nM, the off-rate constant (koff) worked out at 0.0298 s⁻¹ and the kon is 5380 M⁻¹ s⁻¹.

In the case of B6, binding was put at a Kd of 0.194 nM, the koff stood at 0.00015 s⁻¹ and the kon was determined as 772000 M⁻¹ s⁻¹.

In the case of B11, binding was characterised by a dissociation constant (Kd) of 58.7 nM, the koff is 0.00835 s⁻¹ and the kon is 142000 M⁻¹ s⁻¹.

In the case of B12, the Kd was found to be 106 nM, the dissociation rate constant (koff) is 0.00494 s⁻¹ and the kon was 46700 M⁻¹ s⁻¹.

As to B7, the dissociation constant Kd was 0.512 nM, the koff stood at 0.000145 s⁻¹ and the kon was 284000 M⁻¹ s⁻¹.

B13 showed a Kd of 262 nM, a koff of 0.041 s⁻¹ and a kon of 157000 M⁻¹ s⁻¹.

B14 registered a Kd of 56.9 nM, a koff of 0.00063 s⁻¹ and a kon of 11100 M⁻¹ s⁻¹.

On to B15, for which the affinity, expressed as Kd, was 3.46 nM; the koff is 0.000419 s⁻¹; the kon was 121000 M⁻¹ s⁻¹.

In turn, B5 had a Kd of 0.0286 nM, a koff of 1.68e-05 s⁻¹ and a kon of 586000 M⁻¹ s⁻¹.

With B8, the dissociation constant Kd was determined as 1.48 nM, the koff turned out to be 0.00226 s⁻¹ and the on-rate constant (kon) was 1.53e+06 M⁻¹ s⁻¹.

On to B9, for which the Kd came out at 2.91 nM, the koff is 6.54e-05 s⁻¹ and the kon is 22500 M⁻¹ s⁻¹.
